# Values quoted from earlier work in publication PMC3937454.
# Assays:
# Lys146 = Lys146 (UniProt position 164, LRKLRKRLLRD); conditions: not stated (lipid-free or lipid-bound state not specified for the quoted values)
# Lys143 = Lys143 (UniProt position 161, ASHLRKLRKRL); conditions: not stated (lipid-free or lipid-bound state not specified for the quoted values)
substance,measurement,setting,value
Apolipoprotein E3 (apoE3) (Homo sapiens),pKa,Lys146,9.2
same,pKa,Lys143,9.5
